US20240261333A1, “NOVEL TARGETS FOR ENHANCING ANTI-TUMOR IMMUNITY” (THE BROAD INSTITUTE, INC., priority 2021, published 2024)

Columns and labels:
SYNCRIP (human) = SYNCRIP (human) (UniProt O60506); assay: control IP with IgG, lysate of cells with C-FLAG B3GNT2, mass spectrometry
GBF1 (human) = GBF1 (human) (UniProt Q92538); assay: as above
CCT3 (human) = CCT3 (human) (UniProt P49368); assay: as above
RPS14 (human) = RPS14 (human) (UniProt P62263); assay: as above
YBX1 (human) = YBX1 (human) (UniProt P67809); assay: as above
TPM3 (human) = TPM3 (human) (UniProt P06753); assay: as above
Chain of TPM3 (human) (P06753 other isoform, or with tags, fused parts or gaps limits assumed): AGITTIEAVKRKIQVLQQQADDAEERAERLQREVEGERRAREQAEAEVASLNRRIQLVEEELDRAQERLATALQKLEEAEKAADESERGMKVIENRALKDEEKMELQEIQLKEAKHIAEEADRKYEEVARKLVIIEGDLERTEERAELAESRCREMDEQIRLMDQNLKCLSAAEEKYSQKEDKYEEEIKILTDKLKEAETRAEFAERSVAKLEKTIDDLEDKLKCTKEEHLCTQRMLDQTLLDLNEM

IL13RA2 (human) = IL13RA2 (human) (UniProt Q14627); assay: as above
RPS27A (human) = RPS27A (human) (UniProt P62979); assay: as above
TBL2 (human) = TBL2 (human) (UniProt Q9Y4P3); assay: as above
Chain of TBL2 (human) (Q9Y4P3 whole entry): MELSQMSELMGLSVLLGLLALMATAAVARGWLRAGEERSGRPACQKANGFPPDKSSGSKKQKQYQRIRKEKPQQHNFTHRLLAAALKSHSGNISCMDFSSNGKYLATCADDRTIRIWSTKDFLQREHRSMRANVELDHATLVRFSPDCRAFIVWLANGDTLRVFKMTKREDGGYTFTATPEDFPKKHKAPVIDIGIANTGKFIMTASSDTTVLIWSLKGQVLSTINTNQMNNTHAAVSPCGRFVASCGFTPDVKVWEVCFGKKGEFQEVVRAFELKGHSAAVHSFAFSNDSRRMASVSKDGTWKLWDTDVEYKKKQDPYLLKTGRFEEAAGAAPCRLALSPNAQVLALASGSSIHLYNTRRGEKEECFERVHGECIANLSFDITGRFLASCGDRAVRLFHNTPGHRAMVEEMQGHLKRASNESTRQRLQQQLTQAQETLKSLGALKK

PKM (human) = PKM (human) (UniProt P14618); assay: as above
SYNPO (human) = SYNPO (human) (UniProt Q8N3V7); assay: as above
SERPINB3 (human) = SERPINB3 (human) (UniProt P29508); assay: as above
Chain of SERPINB3 (human) (P29508 whole entry): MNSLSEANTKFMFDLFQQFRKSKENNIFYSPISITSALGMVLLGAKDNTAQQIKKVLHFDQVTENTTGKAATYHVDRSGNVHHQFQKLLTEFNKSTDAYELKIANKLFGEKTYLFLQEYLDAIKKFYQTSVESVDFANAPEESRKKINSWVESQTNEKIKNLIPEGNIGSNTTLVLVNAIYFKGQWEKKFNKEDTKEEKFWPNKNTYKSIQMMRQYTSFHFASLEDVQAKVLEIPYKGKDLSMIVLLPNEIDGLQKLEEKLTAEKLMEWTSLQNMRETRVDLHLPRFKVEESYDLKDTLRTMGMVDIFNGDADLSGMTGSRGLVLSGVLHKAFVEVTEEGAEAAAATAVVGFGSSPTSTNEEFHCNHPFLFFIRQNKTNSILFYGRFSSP

S100A7 (human) = S100A7 (human) (UniProt P31151); assay: as above
Chain of S100A7 (human) (P31151 2-101 limits assumed): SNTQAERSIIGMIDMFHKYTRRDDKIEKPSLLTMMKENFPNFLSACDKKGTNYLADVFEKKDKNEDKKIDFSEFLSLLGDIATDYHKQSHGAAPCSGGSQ

EIF3A (human) = EIF3A (human) (UniProt Q14152); assay: as above
GEMIN4 (human) = GEMIN4 (human) (UniProt P57678); assay: as above
Chain of GEMIN4 (human) (P57678 whole entry): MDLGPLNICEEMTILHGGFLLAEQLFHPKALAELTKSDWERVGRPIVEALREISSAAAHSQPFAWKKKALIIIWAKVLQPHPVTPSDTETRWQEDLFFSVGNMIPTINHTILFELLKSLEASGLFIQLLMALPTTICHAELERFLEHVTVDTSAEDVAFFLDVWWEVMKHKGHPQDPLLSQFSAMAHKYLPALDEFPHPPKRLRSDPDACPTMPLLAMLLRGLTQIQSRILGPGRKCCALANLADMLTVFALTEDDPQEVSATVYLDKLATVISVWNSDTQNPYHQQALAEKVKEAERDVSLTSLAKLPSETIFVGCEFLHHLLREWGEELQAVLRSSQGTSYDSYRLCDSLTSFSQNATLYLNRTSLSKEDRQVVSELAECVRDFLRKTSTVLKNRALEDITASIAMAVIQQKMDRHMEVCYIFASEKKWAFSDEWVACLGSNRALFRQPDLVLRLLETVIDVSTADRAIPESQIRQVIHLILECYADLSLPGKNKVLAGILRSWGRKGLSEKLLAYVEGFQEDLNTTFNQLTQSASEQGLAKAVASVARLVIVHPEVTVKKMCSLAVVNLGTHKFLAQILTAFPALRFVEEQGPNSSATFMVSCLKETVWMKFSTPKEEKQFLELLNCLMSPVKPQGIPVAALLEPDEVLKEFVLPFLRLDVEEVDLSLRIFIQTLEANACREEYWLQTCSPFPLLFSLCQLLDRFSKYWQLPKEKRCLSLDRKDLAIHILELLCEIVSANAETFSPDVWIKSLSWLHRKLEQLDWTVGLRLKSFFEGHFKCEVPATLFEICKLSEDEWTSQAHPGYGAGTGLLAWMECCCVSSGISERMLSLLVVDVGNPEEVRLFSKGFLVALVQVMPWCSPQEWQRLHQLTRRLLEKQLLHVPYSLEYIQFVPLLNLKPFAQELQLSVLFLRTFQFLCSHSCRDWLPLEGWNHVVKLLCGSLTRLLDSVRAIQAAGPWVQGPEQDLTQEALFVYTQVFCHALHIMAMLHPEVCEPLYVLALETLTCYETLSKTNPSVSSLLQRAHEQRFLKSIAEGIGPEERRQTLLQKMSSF

RPL38 (human) = RPL38 (human) (UniProt P63173); assay: as above
RPL32 (human) = RPL32 (human) (UniProt P62910); assay: co-IP with anti-FLAG, mass spectrometry; lysate of cells with C-FLAG B3GNT2
MSN (human) = MSN (human) (UniProt P26038); assay: as above
NPM1 (human) = NPM1 (human) (UniProt P06748); assay: as above
Chain of NPM1 (human) (P06748 whole entry): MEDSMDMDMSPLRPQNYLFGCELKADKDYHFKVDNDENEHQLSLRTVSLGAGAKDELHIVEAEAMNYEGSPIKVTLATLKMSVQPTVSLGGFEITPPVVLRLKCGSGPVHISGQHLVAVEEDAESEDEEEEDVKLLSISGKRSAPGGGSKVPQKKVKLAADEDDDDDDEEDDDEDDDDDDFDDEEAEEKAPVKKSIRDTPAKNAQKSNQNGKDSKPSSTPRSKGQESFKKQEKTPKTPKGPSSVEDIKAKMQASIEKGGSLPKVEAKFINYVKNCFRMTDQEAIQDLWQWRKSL

SEL1L (human) = SEL1L (human) (UniProt Q9UBV2); assay: as above
RRP12 (human) = RRP12 (human) (UniProt Q5JTH9); assay: as above
CCT2 (human) = CCT2 (human) (UniProt P78371); assay: as above
PJA2 (human) = PJA2 (human) (UniProt O43164); assay: as above
HSPD1 (human) = HSPD1 (human) (UniProt P10809); assay: as above
TOR1AIP2 (human) = TOR1AIP2 (human) (UniProt Q8NFQ8); assay: as above
GANAB (human) = GANAB (human) (UniProt Q14697); assay: as above
GAPDH (human) = GAPDH (human) (UniProt P04406); assay: as above
SPRR1A (human) = SPRR1A (human) (UniProt P35321); assay: as above
Chain of SPRR1A (human) (P35321 whole entry): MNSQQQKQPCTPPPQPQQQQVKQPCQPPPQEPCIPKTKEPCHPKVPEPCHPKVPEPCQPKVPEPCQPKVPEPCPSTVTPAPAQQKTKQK

RPS27 (human) = RPS27 (human) (UniProt P42677); assay: as above
RARS (human) = RARS (human) (UniProt P54136); assay: as above
HADHA (human) = HADHA (human) (UniProt P40939); assay: as above
ARHGEF2 (human) = ARHGEF2 (human) (UniProt Q92974); assay: as above
PIGR (human) = PIGR (human) (UniProt P01833); assay: as above
DNAJB11 (human) = DNAJB11 (human) (UniProt Q9UBS4); assay: as above
Chain of DNAJB11 (human) (Q9UBS4 23-358 limits assumed): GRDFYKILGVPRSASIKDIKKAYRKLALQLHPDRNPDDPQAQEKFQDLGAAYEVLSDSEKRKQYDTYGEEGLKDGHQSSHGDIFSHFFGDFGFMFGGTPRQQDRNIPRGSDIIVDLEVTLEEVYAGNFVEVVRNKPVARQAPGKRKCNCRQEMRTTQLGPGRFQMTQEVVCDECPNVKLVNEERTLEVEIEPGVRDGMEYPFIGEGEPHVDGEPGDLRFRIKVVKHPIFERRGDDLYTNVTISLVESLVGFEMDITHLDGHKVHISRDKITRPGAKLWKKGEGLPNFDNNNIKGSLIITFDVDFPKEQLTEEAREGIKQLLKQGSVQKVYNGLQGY

RPL9 (human) = RPL9 (human) (UniProt P32969); assay: as above
IPO13 (human) = IPO13 (human) (UniProt O94829); assay: as above
MYO1C (human) = MYO1C (human) (UniProt O00159); assay: as above

Chain of GBF1 (human) (Q92538 whole entry): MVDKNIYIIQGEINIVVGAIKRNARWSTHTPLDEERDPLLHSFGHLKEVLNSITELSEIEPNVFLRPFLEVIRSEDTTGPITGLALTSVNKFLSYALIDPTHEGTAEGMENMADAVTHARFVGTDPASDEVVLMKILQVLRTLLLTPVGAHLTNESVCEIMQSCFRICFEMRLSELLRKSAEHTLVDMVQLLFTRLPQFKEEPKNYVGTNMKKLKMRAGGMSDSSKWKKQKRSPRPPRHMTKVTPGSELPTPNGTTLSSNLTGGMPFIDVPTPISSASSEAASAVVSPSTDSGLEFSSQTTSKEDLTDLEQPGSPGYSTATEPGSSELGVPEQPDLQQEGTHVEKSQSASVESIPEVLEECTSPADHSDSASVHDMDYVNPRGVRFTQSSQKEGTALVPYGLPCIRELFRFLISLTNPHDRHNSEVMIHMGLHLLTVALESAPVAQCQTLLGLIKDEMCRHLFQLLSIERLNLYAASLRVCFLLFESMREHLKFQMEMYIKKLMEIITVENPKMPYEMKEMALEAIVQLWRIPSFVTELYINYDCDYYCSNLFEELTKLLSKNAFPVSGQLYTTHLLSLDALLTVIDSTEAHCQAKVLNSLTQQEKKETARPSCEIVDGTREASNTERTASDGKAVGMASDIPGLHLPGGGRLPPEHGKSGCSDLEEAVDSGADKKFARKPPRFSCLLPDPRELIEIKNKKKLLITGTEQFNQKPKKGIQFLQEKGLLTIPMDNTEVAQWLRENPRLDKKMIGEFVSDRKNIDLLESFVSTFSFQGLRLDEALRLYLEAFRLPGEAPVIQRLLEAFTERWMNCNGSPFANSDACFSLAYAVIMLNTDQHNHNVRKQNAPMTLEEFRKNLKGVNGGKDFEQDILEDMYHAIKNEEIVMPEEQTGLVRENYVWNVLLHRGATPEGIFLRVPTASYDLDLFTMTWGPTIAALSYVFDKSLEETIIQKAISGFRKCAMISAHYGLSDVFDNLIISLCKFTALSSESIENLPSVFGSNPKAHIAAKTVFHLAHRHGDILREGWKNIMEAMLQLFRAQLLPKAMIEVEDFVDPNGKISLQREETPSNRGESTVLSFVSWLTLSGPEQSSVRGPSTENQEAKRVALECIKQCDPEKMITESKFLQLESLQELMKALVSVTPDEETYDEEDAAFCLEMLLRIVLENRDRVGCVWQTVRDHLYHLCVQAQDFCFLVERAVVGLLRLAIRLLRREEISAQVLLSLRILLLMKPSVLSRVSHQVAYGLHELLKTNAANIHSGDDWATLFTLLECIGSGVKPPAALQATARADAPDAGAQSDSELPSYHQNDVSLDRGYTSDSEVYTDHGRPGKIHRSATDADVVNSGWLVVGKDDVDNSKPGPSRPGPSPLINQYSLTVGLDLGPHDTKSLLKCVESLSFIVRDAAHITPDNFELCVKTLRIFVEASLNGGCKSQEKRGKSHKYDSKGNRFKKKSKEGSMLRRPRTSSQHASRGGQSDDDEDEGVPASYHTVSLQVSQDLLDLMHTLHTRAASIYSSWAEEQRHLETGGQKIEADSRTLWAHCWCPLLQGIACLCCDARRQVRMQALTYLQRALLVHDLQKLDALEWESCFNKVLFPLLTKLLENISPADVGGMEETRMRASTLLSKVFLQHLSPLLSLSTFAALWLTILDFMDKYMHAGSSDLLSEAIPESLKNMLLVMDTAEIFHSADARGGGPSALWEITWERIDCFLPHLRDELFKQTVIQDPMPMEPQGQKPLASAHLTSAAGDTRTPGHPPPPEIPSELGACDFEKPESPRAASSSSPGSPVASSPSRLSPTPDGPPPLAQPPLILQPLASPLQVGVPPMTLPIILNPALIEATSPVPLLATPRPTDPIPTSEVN

IgG control (Millipore Sigma 12-371) (antibody)
co-IP mass spectrometry count (SYNCRIP (human)): 4
co-IP mass spectrometry count (GBF1 (human)): 0
co-IP mass spectrometry count (CCT3 (human)): 0
co-IP mass spectrometry count (RPS14 (human)): 10
co-IP mass spectrometry count (YBX1 (human)): 5
co-IP mass spectrometry count (TPM3 (human)): 2
co-IP mass spectrometry count (IL13RA2 (human)): 0
co-IP mass spectrometry count (RPS27A (human)): 14
co-IP mass spectrometry count (TBL2 (human)): 0
co-IP mass spectrometry count (PKM (human)): 2
co-IP mass spectrometry count (SYNPO (human)): 4
co-IP mass spectrometry count (SERPINB3 (human)): 2
co-IP mass spectrometry count (S100A7 (human)): 3
co-IP mass spectrometry count (EIF3A (human)): 0
co-IP mass spectrometry count (GEMIN4 (human)): 0
co-IP mass spectrometry count (RPL38 (human)): 6

C-terminal FLAG tagged B3GNT2 (from UniProt Q9NY97 1-397) (enzyme)
co-IP mass spectrometry count (RPL32 (human)): 7
co-IP mass spectrometry count (MSN (human)): 4
co-IP mass spectrometry count (NPM1 (human)): 8
co-IP mass spectrometry count (SEL1L (human)): 5
co-IP mass spectrometry count (RRP12 (human)): 2
co-IP mass spectrometry count (CCT2 (human)): 2
co-IP mass spectrometry count (PJA2 (human)): 2
co-IP mass spectrometry count (HSPD1 (human)): 6
co-IP mass spectrometry count (TOR1AIP2 (human)): 2
co-IP mass spectrometry count (GANAB (human)): 8
co-IP mass spectrometry count (GAPDH (human)): 16
co-IP mass spectrometry count (SPRR1A (human)): 3
co-IP mass spectrometry count (RPS27 (human)): 6
co-IP mass spectrometry count (RARS (human)): 2
co-IP mass spectrometry count (HADHA (human)): 2
co-IP mass spectrometry count (ARHGEF2 (human)): 2
co-IP mass spectrometry count (PIGR (human)): 5
co-IP mass spectrometry count (DNAJB11 (human)): 4
co-IP mass spectrometry count (RPL9 (human)): 7
co-IP mass spectrometry count (IPO13 (human)): 2
co-IP mass spectrometry count (MYO1C (human)): 3
